# Results taken from paper PMC11379886, “Insights into phosphoethanolamine cellulose synthesis and secretion across the Gram-negative cell envelope” (Nature Communications, 2024).
# T1: Escherichia coli BcsB (residues 55–779), as it stands in the BcsB-BcsC fusion (Escherichia coli, UniProt P37652 55-779)
# T1 construct: E. coli BcsB, residues 55-779; Joined on one chain with Strep-tag II, BcsC 21-179 and a GSGSGS linker at its N-terminus (molecule m11); written apart for the BcsB-BcsC pair of the structure; source: E. coli C43, as part of the BcsB-BcsC fusion chain, co-purified with the Bcs complex
# T1 sequence (looked up): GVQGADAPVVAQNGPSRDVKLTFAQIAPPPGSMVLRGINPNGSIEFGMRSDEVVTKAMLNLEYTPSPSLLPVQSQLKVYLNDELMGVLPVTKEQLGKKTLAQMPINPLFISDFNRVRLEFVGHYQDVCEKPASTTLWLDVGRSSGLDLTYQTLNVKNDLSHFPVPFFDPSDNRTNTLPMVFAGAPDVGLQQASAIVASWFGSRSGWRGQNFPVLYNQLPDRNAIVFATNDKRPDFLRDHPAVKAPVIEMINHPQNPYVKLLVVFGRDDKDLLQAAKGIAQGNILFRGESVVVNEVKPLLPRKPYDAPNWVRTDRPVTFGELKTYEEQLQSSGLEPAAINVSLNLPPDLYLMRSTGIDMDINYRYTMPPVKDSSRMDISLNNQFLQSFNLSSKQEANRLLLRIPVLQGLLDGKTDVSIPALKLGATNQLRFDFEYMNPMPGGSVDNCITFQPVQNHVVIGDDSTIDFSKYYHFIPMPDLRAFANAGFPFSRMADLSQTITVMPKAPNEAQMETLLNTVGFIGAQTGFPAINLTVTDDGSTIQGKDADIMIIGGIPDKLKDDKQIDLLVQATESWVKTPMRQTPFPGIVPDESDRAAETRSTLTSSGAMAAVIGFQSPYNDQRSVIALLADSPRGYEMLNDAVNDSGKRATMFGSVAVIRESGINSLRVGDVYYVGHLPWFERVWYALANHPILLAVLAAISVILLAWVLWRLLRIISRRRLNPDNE
# B1: Escherichia coli pEtN transferase BcsG, FLAG-tagged (enzyme, UniProt P37659 1-559, looked up)
# chain: MTQFTQNTAMPSSLWQYWRGLSGWNFYFLVKFGLLWAGYLNFHPLLNLVFAAFLLMPLPRYSLHRLRHWIALPIGFALFWHDTWLPGPESIMSQGSQVAGFSTDYLIDLVTRFINWQMIGAIFVLLVAWLFLSQWIRITVFVVAILLWLNVLTLAGPSFSLWPAGQPTTTVTTTGGNAAATVAATGGAPVVGDMPAQTAPPTTANLNAWLNNFYNAEAKRKSTFPSSLPADAQPFELLVINICSLSWSDIEAAGLMSHPLWSHFDIEFKNFNSATSYSGPAAIRLLRASCGQTSHTNLYQPANNDCYLFDNLSKLGFTQHLMMGHNGQFGGFLKEVRENGGMQSELMDQTNLPVILLGFDGSPVYDDTAVLNRWLDVTEKDKNSRSATFYNTLPLHDGNHYPGVSKTADYKARAQKFFDELDAFFTELEKSGRKVMVVVVPEHGGALKGDRMQVSGLRDIPSPSITDVPVGVKFFGMKAPHQGAPIVIEQPSSFLAISDLVVRVLDGKIFTEDNVDWKKLTSGLPQTAPVSENSNAVVIQYQDKPYVRLNGGDWVPYPQ
# notes: present as the full-length enzyme in the analysed sample; End of the FLAG tag read from the plasmid's name (G-FLAG); also called Ec BcsG; source: E. coli C43 (DE3), co-expressed with the other Bcs components or with the BcsA chimera, Rs BcsB and BcsF; co-purified; not shown: FLAG, C-terminal, kept
# B2: BcsB-BcsC fusion: BcsC TPR#1–4 fused to the N-terminus of Escherichia coli BcsB (other)
# chain: VEAAPTAQQQLLEQVRLGEATHREDLVQQSLYRLELIDPNNPDVVAARFRSLLRQGDIDGAQKQLDRLSQLAPSSNAYKSSRTTMLLSTPDGRQALQQARLQATTGHAEEAVASYNKLFNGAPPEGDIAVEYWSTVAKIPARRGEAINQLKRINADAPGGSGSGSGVQGADAPVVAQNGPSRDVKLTFAQIAPPPGSMVLRGINPNGSIEFGMRSDEVVTKAMLNLEYTPSPSLLPVQSQLKVYLNDELMGVLPVTKEQLGKKTLAQMPINPLFISDFNRVRLEFVGHYQDVCEKPASTTLWLDVGRSSGLDLTYQTLNVKNDLSHFPVPFFDPSDNRTNTLPMVFAGAPDVGLQQASAIVASWFGSRSGWRGQNFPVLYNQLPDRNAIVFATNDKRPDFLRDHPAVKAPVIEMINHPQNPYVKLLVVFGRDDKDLLQAAKGIAQGNILFRGESVVVNEVKPLLPRKPYDAPNWVRTDRPVTFGELKTYEEQLQSSGLEPAAINVSLNLPPDLYLMRSTGIDMDINYRYTMPPVKDSSRMDISLNNQFLQSFNLSSKQEANRLLLRIPVLQGLLDGKTDVSIPALKLGATNQLRFDFEYMNPMPGGSVDNCITFQPVQNHVVIGDDSTIDFSKYYHFIPMPDLRAFANAGFPFSRMADLSQTITVMPKAPNEAQMETLLNTVGFIGAQTGFPAINLTVTDDGSTIQGKDADIMIIGGIPDKLKDDKQIDLLVQATESWVKTPMRQTPFPGIVPDESDRAAETRSTLTSSGAMAAVIGFQSPYNDQRSVIALLADSPRGYEMLNDAVNDSGKRATMFGSVAVIRESGINSLRVGDVYYVGHLPWFERVWYALANHPILLAVLAAISVILLAWVLWRLLRIISRRRLNPDNE
# notes: N-terminal four TPRs of E. coli BcsC (TPR#1-4), residues 21-179; linker; E. coli BcsB, residues 55-779; The best map came from a tetrameric BcsB assembly; a fully assembled complex was also seen; also called nSS-Strep-TPR(#1-4)-(GS)3-B; engineered BcsB-BcsC fusion; source: E. coli C43, co-expressed with all other Bcs components, co-purified (Ni-NTA, Strep-Tactin, SEC), in detergent; not shown: …
# B3: periplasmic domain of Escherichia coli BcsC (TPR#1–18; residues 24–709) (domain or fragment, UniProt P37650 24-709, looked up)
# chain: APTAQQQLLEQVRLGEATHREDLVQQSLYRLELIDPNNPDVVAARFRSLLRQGDIDGAQKQLDRLSQLAPSSNAYKSSRTTMLLSTPDGRQALQQARLQATTGHAEEAVASYNKLFNGAPPEGDIAVEYWSTVAKIPARRGEAINQLKRINADAPGNTGLQNNLALLLFSSDRRDEGFAVLEQMAKSNAGREGASKIWYGQIKDMPVSDASVSALKKYLSIFSDGDSVAAAQSQLAEQQKQLADPAFRARAQGLAAVDSGMAGKAIPELQQAVRANPKDSEALGALGQAYSQKGDRANAVANLEKALALDPHSSNNDKWNSLLKVNRYWLAIQQGDAALKANNPDRAERLFQQARNVDNTDSYAVLGLGDVAMARKDYPAAERYYQQTLRMDSGNTNAVRGLANIYRQQSPEKAEAFIASLSASQRRSIDDIERSLQNDRLAQQAEALENQGKWAQAAALQRQRLALDPGSVWITYRLSQDLWQAGQRSQADTLMRNLAQQKSNDPEQVYAYGLYLSGHDQDRAALAHINSLPRAQWNSNIQELVNRLQSDQVLETANRLRESGKEAEAEAMLRQQPPSTRIDLTLADWAQQRRDYTAARAAYQNVLTREPANADAILGLTEVDIAAGDKAAARSQLAKLPATDNASLNTQRRVALAQAQLGDTAAAQRTFNKLIPQAKSQPPSME
# notes: BcsC periplasmic domain, TPR#1-18, residues 24-709, cloned into pET20b; also called BcsC's periplasmic domain; N-terminal 18 TPRs of BcsC; source: E. coli Rosetta 2, periplasmic extract, purified (Ni-NTA, SEC)
# B4: Escherichia coli BcsB (natural protein)
# chain: TPATQPLINAEPAVAAQTEQNPQVGQVMPGVQGADAPVVAQNGPSRDVKLTFAQIAPPPGSMVLRGINPNGSIEFGMRSDEVVTKAMLNLEYTPSPSLLPVQSQLKVYLNDELMGVLPVTKEQLGKKTLAQMPINPLFISDFNRVRLEFVGHYQDVCEKPASTTLWLDVGRSSGLDLTYQTLNVKNDLSHFPVPFFDPSDNRTNTLPMVFAGAPDVGLQQASAIVASWFGSRSGWRGQNFPVLYNQLPDRNAIVFATNDKRPDFLRDHPAVKAPVIEMINHPQNPYVKLLVVFGRDDKDLLQAAKGIAQGNILFRGESVVVNEVKPLLPRKPYDAPNWVRTDRPVTFGELKTYEEQLQSSGLEPAAINVSLNLPPDLYLMRSTGIDMDINYRYTMPPVKDSSRMDISLNNQFLQSFNLSSKQEANRLLLRIPVLQGLLDGKTDVSIPALKLGATNQLRFDFEYMNPMPGGSVDNCITFQPVQNHVVIGDDSTIDFSKYYHFIPMPDLRAFANAGFPFSRMADLSQTITVMPKAPNEAQMETLLNTVGFIGAQTGFPAINLTVTDDGSTIQGKDADIMIIGGIPDKLKDDKQIDLLVQATESWVKTPMRQTPFPGIVPDESDRAAETRSTLTSSGAMAAVIGFQSPYNDQRSVIALLADSPRGYEMLNDAVNDSGKRATMFGSVAVIRESGINSLRVGDVYYVGHLPWFERVWYALANHPILLAVLAAISVILLAWVLWRLLRIISRRRLNPDNE
# notes: BcsB, periplasmic inner-membrane-anchored subunit of the E. coli cellulose synthase complex; In the BcsB-BcsC fusion made from the same plasmid the BcsB part is residues 55-779; also called Ec BcsB; not shown: Strep-tag II, N-terminal, kept
# B5: Escherichia coli BcsC TPR#1–4 (residues 21–179), as it stands in the BcsB-BcsC fusion (domain or fragment, UniProt P37650 21-179, looked up)
# chain: VEAAPTAQQQLLEQVRLGEATHREDLVQQSLYRLELIDPNNPDVVAARFRSLLRQGDIDGAQKQLDRLSQLAPSSNAYKSSRTTMLLSTPDGRQALQQARLQATTGHAEEAVASYNKLFNGAPPEGDIAVEYWSTVAKIPARRGEAINQLKRINADAPG
# notes: N-terminal four TPRs of E. coli BcsC (TPR#1-4), residues 21-179; Joined on one chain with BcsB 55-779 through a GSGSGS linker (molecule m11); written apart for the BcsB-BcsC pair of the structure; also called BcsC's TPRs#1–4; BcsC N-terminal TPRs; source: E. coli C43, as part of the BcsB-BcsC fusion chain, co-purified with the Bcs complex; not shown: Strep-tag II, N-terminal, kept
# B6: Escherichia coli cellulase BcsZ (enzyme)
# chain: ACTWPAWEQFKKDYISQEGRVIDPSDARKITTSEGQSYGMFSALAANDRAAFDNILDWTQNNLAQGSLKERLPAWLWGKKENSKWEVLDSNSASDGDVWMAWSLLEAGRLWKEQRYTDIGSALLKRIAREEVVTVPGLGSMLLPGKVGFAEDNSWRFNPSYLPPTLAQYFTRFGAPWTTLRETNQRLLLETAPKGFSPDWVRYEKDKGWQLKAEKTLISSYDAIRVYMWVGMMPDSDPQKARMLNRFKPMATFTEKNGYPPEKVDVATGKAQGKGPVGFSAAMLPFLQNRDAQAVQRQRVADNFPGSDAYYNYVLTLFGQGWDQHRFRFSTKGELLPDWGQECANSH
# notes: End of the His tag read from the plasmid's name; also called Ec BcsZ
# What was measured:
# [1] = biological target: the molecule itself; test: cryo-EM structure; reprocessing of the previously published cryo-EM data (EMD-23267) of the co-expressed, co-purified Ec inner membrane-associated Bcs complex, focused on BcsA-BcsG; ~5.7 Å; AlphaFold2 model docked as rigid bodies
# [2] = biological target: the molecule itself; test: cryo-EM structure; BcsC TPR#1-4 fused to the N-terminus of BcsB, co-expressed with all other Bcs components, purified in detergent, about 2.2 mg/mL; focused refinement of a tetrameric BcsB assembly, about 3.2 Å
# [3] = biological target: B4; test: cryo-EM structure; purified Ec Bcs inner membrane complex in MSP2N2 nanodiscs incubated with the separately purified periplasmic domain of BcsC (TPR#1-18) at a molar ratio of 1:5 for 1 h on ice; low-resolution map; details: both partners purified
# [4] = biological target: the molecule itself; test: as above
# [5] = biological target: T1, Escherichia coli BcsB (residues …); test: cryo-EM structure; BcsC TPR#1-4 fused to the N-terminus of BcsB, co-expressed with all other Bcs components, purified in detergent, about 2.2 mg/mL; focused refinement of a tetrameric BcsB assembly, about 3.2 Å; details: both partners purified
# [6] = biological target: the molecule itself; test: cryo-EM structure; BcsC incubated with purified BcsZ at a molar 1:1.5; single particle analysis, about 2.7 Å for BcsZ
binder,measurement,setting,value
B1,stoichiometry N,[1],3
B2,stoichiometry N,[2],4
B3,binding result,[3],binds
B4,stoichiometry N,[4],6
B5,binding result,[5],binds
B6,stoichiometry N,[6],4
